Laboratory results published in patent publication US20240124607A1 (Merck Sharp & Dohme, published 2024).
Positions count from the first letter of the chain named.

T1: Human CEACAM5 (E398) (human, UniProt P06731 35-685, limits assumed)
T1 construct: also called hCEACAM5
T1 sequence: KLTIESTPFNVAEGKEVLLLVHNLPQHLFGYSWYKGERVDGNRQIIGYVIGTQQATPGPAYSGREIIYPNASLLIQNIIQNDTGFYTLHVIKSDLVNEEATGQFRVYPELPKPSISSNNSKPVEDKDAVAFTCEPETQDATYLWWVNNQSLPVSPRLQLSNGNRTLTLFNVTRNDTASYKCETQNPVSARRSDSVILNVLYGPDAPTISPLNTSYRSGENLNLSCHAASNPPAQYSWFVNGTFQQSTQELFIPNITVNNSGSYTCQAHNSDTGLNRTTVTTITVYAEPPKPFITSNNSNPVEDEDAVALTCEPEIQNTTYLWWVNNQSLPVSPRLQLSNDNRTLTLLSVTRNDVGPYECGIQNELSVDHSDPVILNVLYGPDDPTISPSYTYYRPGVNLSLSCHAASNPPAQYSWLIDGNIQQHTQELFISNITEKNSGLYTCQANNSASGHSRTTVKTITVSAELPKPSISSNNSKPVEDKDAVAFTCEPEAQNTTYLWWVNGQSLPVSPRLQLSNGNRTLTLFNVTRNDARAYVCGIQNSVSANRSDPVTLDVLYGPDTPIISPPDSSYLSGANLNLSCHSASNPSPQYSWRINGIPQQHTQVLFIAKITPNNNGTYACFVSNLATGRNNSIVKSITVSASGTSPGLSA

T2: Human CEACAM5 (K398) (human, UniProt P06731 35-685, limits assumed)
T2 construct: also called K398 allele
T2 sequence: T1 sequence with E364K

T3: Human CEACAM5 V83A (human, UniProt P06731 35-685, limits assumed)
T3 sequence: T1 sequence with V49A

T4: human CEACAM6 on Ba/F3 cells (human, UniProt P40199 35-320)
T4 construct: whole, on cells
T4 sequence (looked up): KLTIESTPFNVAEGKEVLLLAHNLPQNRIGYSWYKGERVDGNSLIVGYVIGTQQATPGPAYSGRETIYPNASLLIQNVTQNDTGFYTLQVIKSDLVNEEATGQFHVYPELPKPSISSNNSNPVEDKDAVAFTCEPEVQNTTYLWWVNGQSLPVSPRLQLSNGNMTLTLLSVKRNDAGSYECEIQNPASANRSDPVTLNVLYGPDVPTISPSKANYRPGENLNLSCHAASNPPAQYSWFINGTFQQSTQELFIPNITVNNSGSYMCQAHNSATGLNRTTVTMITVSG

B1: AB0466 F3' CEACAM5 TriNKET (bispecific antibody, human IgG1, kappa)
chain: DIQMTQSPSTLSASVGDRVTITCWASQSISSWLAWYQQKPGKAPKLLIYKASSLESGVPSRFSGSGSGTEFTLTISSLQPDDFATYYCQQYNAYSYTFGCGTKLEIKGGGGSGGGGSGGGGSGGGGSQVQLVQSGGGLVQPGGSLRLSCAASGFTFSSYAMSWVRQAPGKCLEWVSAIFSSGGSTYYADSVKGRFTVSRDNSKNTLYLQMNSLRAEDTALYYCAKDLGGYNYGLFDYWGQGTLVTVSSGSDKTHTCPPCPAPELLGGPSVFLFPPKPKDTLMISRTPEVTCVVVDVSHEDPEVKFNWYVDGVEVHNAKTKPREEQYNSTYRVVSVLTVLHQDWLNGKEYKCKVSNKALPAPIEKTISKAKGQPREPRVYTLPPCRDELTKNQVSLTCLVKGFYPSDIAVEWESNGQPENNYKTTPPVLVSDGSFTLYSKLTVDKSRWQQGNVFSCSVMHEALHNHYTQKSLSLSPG
heavy: EVQLVESGGGLVKPGGSLRLSCAASGFTFSSYSMNWVRQAPGKGLEWVSSISSSSSYIYYADSVKGRFTISRDNAKNSLYLQMNSLRAEDTAVYYCARGAPIGAAAGWFDPWGQGTLVTVSSASTKGPSVFPLAPSSKSTSGGTAALGCLVKDYFPEPVTVSWNSGALTSGVHTFPAVLQSSGLYSLSSVVTVPSSSLGTQTYICNVNHKPSNTKVDKKVEPKSCDKTHTCPPCPAPELLGGPSVFLFPPKPKDTLMISRTPEVTCVVVDVSHEDPEVKFNWYVDGVEVHNAKTKPREEQYNSTYRVVSVLTVLHQDWLNGKEYKCKVSNKALPAPIEKTISKAKGQPREPQVCTLPPSRDELTENQVSLTCLVKGFYPSDIAVEWESNGQPENNYKTTPPVLDSDGSFFLYSWLTVDKSRWQQGNVFSCSVMHEALHNHYTQKSLSLSPG
light: DIQMTQSPSSVSASVGDRVTITCRASQGISSWLAWYQQKPGKAPKLLIYAASSLQSGVPSRFSGSGSGTDFTLTISSLQPEDFATYYCQQGVSFPRTFGGGTKVEIKRTVAAPSVFIFPPSDEQLKSGTASVVCLLNNFYPREAKVQWKVDNALQSGNSQESVTEQDSKDSTYSLSSTLTLSKADYEKHKVYACEVTHQGLSSPVTKSFNRGEC
B2: AB0621 F3' CEACAM5 TriNKET (bispecific antibody, human IgG1, kappa)
chain: DIVMTQSPDSLAVSLGERATINCKSSHSLLYGNFQNNYLAWYQQKPGQPPKLLIYWASTRESGVPDRFSGSGSGTDFTLTISSLQAEDVAVYYCQQYYSYPYTFGCGTKLEIKGGGGSGGGGSGGGGSGGGGSQVQLVQSGAEVKKPGASVKVSCKASGYTFTAYTIHWVRQAPGQCLEWMGYINPSSGYTEYNQKFKDRTTLTADTSISTAYMELSRLRSDDTAVYYCTREGGLLWFDYWGQGTLVTVSSGSDKTHTCPPCPAPELLGGPSVFLFPPKPKDTLMISRTPEVTCVVVDVSHEDPEVKFNWYVDGVEVHNAKTKPREEQYNSTYRVVSVLTVLHQDWLNGKEYKCKVSNKALPAPIEKTISKAKGQPREPRVYTLPPCRDELTKNQVSLTCLVKGFYPSDIAVEWESNGQPENNYKTTPPVLVSDGSFTLYSKLTVDKSRWQQGNVFSCSVMHEALHNHYTQKSLSLSPG
heavy: B1 heavy
light: B1 light
B3: AB0264 F3' CEACAM5 TriNKET (bispecific antibody, human IgG1, kappa)
chain: B2 chain with S210P
heavy: B1 heavy
light: B1 light
B4: AB0411 F3' CEACAM5 TriNKET (bispecific antibody, human IgG1, kappa)
chain: DIQLTQSPATLSVSPGERATLSCRASQSVSSSYLAWYQQKPGQAPRLLIYGASSRATGIPDRFSGSGSGTDFTLTISRLEPEDFAVYYCQQYNNWPLTFGCGTKVEIKGGGGSGGGGSGGGGSGGGGSQVQLVQSGGGLVQPGGSLRLSCAASGFTFTSYAMSWVRQAPGKCLEWVSAISGTGDSTFYADSVKGRFTFSRDNSKNTLYLQMNSLRAEDTAVYYCAKDLGWLQYGLFDYWGQGTLVTVSSGSDKTHTCPPCPAPELLGGPSVFLFPPKPKDTLMISRTPEVTCVVVDVSHEDPEVKFNWYVDGVEVHNAKTKPREEQYNSTYRVVSVLTVLHQDWLNGKEYKCKVSNKALPAPIEKTISKAKGQPREPRVYTLPPCRDELTKNQVSLTCLVKGFYPSDIAVEWESNGQPENNYKTTPPVLVSDGSFTLYSKLTVDKSRWQQGNVFSCSVMHEALHNHYTQKSLSLSPG
heavy: B1 heavy
light: B1 light

Assays:
Human CEACAM5 (E398) = target: T1, Human CEACAM5 (E398); experiment: SPR, 37C, pH 7.4; reference E398
Human CEACAM5 (K398) = target: T2, Human CEACAM5 (K398); experiment: SPR, 37C, pH 7.4; reference E398
Human CEACAM5 V83A = target: T3, Human CEACAM5 V83A; experiment: SPR, 37C, pH 7.4; reference E398
[1] = target: T4, human CEACAM6 on Ba/F3 cells; experiment: flow cytometry on Ba/F3 cells expressing human CEACAM6, fold over background (FOB), 5-fold dilutions from 1600 nM
Protocol: To examine the binding specificity of the TriNKETs to CEACAM5 compared to other CEACAM family members, Ba/F3 cells were engineered to express one of human CEACAM1, CEACAM6, CEACAM8, or cynomolgus CEACAM5. CEACAM5 TriNKETs were evaluated by flow cytometry starting at 1600 nM followed by 7 5-fold dilutions.

Binder	KD/KD(Ref) (Human CEACAM5 (E398)) [fold]	KD/KD(Ref) (Human CEACAM5 (K398)) [fold]	KD/KD(Ref) (Human CEACAM5 V83A) [fold]	binding result [1]
B1	1	0.9	9.3	no binding (tested: 1600 nM)
B2	1	1.1	2	no binding (tested: 1600 nM)
B3				no binding (tested: 1600 nM)
B4	1	0.9	4.9	
